T1: Cc78 (Caulobacter crescentus NA1000, UniProt B8GW92 1-78, del79-82)
T1 sequence: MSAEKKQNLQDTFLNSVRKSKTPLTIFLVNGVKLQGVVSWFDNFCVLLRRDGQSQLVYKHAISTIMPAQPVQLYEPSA

B1: R157 (structured_RNA)
RNA: GGUGAGGCGCCGAGCGCCUCUGCCCUUCCUGGGCGUUUCCUCCCUAUGACUUUGUAGCCCGGUCUUCAUGGCCGGGCUUUCUUUUU
B2: ChvR (structured_RNA)
RNA: GGCGGGGCCUACAUGUCGCGCAAGUCUCCGGAGGGCCAUUCCGAGGCGGGGCCCGCUCCAGCGUCCUCAUUGGAGCGGGCGUCU

How the values were obtained:
Cc78 [1] = biological target: T1, Cc78; experiment: EMSA; Hill n 1.3; EMSA: 34 mM Tris-HCl pH 7.5, 50 mM NaCl, 50 mM KCl, 50 mM NH4Cl, 11.4 mM EDTA, 12% glycerol, 30 C, 30 min, ~1 nM 32P-RNA, Kd in Hfq6; anisotropy: 10 mM Tris-HCl; settings: protein: recombinant; tags: untagged after self-cleaved intein; chain copies: 6; label: 32P; stem-loops
Ec65 [2] = biological target: T2, Ec65 (Escherichia coli, UniProt P0A6X3 1-65, del66-102); experiment: EMSA; Hill n 1.0; EMSA: 34 mM Tris-HCl pH 7.5, 50 mM NaCl, 50 mM KCl, 50 mM NH4Cl, 11.4 mM EDTA, 12% glycerol, 30 C, 30 min, ~1 nM 32P-RNA, Kd in Hfq6; anisotropy: 10 mM Tris-HCl; settings: protein: recombinant; tags: untagged; chain copies: 6; label: 32P; stem-loops
Ec Hfq (Hfq102) [3] = biological target: T3, Ec Hfq (Hfq102) (Escherichia coli, UniProt P0A6X3 1-102); experiment: EMSA; Hill n 8.2; Tris-glycine gel; EMSA: 34 mM Tris-HCl pH 7.5, 50 mM NaCl, 50 mM KCl, 50 mM NH4Cl, 11.4 mM EDTA, 12% glycerol, 30 C, 30 min, ~1 nM 32P-RNA, Kd in Hfq6; anisotropy: 10 mM Tris-HCl; settings: protein: recombinant; tags: untagged; chain copies: 6; label: 32P; stem-loops
EcCc Hfq [4] = biological target: T4, EcCc Hfq (Escherichia coli / Caulobacter …, UniProt P0A6X3 1-67+B8GW92:71-82, internal_change); experiment: EMSA; Hill n 5.1; EMSA: 34 mM Tris-HCl pH 7.5, 50 mM NaCl, 50 mM KCl, 50 mM NH4Cl, 11.4 mM EDTA, 12% glycerol, 30 C, 30 min, ~1 nM 32P-RNA, Kd in Hfq6; anisotropy: 10 mM Tris-HCl; settings: protein: recombinant; tags: untagged; chain copies: 6; label: 32P; stem-loops
Cc78 [5] = biological target: T1, Cc78; experiment: EMSA; Hill n 1.4; EMSA: 34 mM Tris-HCl pH 7.5, 50 mM NaCl, 50 mM KCl, 50 mM NH4Cl, 11.4 mM EDTA, 12% glycerol, 30 C, 30 min, ~1 nM 32P-RNA, Kd in Hfq6; anisotropy: 10 mM Tris-HCl; settings: protein: recombinant; tags: untagged after self-cleaved intein; chain copies: 6; label: 32P; stem-loops
Ec Hfq (Hfq102) [6] = biological target: T3, Ec Hfq (Hfq102); experiment: EMSA; Hill n 1.0; Tris-glycine gel; EMSA: 34 mM Tris-HCl pH 7.5, 50 mM NaCl, 50 mM KCl, 50 mM NH4Cl, 11.4 mM EDTA, 12% glycerol, 30 C, 30 min, ~1 nM 32P-RNA, Kd in Hfq6; anisotropy: 10 mM Tris-HCl; settings: protein: recombinant; tags: untagged; chain copies: 6; label: 32P; stem-loops
EcCc Hfq [7] = biological target: T4, EcCc Hfq; experiment: EMSA; Hill n 1.6; EMSA: 34 mM Tris-HCl pH 7.5, 50 mM NaCl, 50 mM KCl, 50 mM NH4Cl, 11.4 mM EDTA, 12% glycerol, 30 C, 30 min, ~1 nM 32P-RNA, Kd in Hfq6; anisotropy: 10 mM Tris-HCl; settings: protein: recombinant; tags: untagged; chain copies: 6; label: 32P; stem-loops
Ec65 [8] = biological target: T2, Ec65; experiment: as above; settings: protein: recombinant; tags: untagged; chain copies: 6; label: 32P; stem-loops

| Binder | Kd (Cc78 [1]) [nM] | Kd (Ec65 [2]) [nM] | Kd (Ec Hfq (Hfq102) [3]) [nM] | Kd (EcCc Hfq [4]) [nM] | Kd (Cc78 [5]) [nM] | Kd (Ec Hfq (Hfq102) [6]) [nM] | Kd (EcCc Hfq [7]) [nM] | Kd (Ec65 [8]) [nM] |
| --- | --- | --- | --- | --- | --- | --- | --- | --- |
| B1 | 349 ± 7 | 6.3 ± 1.1 | 14.3 ± 0.1 | 55.7 ± 2.7 |  |  |  |  |
| B2 |  |  |  |  | 256 ± 25 | 17.2 ± 1 | 228 ± 84 | 20.2 ± 0.3 |
